In patent publication US20220112258A1 (I MAB BIOPHARMA US, published 2022):

T1: IL7R of human primary CD4+ T cells (human, UniProt P16871 21-459)
T1 construct: whole, on cells; also called IL-7 receptor; IL7Rα (CD127) on CD4+ T cells
T1 sequence (looked up): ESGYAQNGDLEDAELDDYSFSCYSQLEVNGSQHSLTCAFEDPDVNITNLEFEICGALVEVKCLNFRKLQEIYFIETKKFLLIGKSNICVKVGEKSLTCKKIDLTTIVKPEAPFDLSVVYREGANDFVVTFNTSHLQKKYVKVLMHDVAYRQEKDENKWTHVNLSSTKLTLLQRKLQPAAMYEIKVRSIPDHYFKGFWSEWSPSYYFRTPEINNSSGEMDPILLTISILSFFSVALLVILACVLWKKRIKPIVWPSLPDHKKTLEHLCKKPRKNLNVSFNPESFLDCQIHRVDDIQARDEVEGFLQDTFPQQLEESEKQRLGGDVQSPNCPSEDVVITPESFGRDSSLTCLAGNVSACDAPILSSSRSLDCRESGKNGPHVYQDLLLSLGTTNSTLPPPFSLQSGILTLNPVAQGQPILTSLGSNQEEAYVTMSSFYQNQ


Legend:
[1] = molecular target: T2, recombinant human his-tagged PD-L1 protein (human, UniProt Q9NZQ7 19-238); assay: ELISA, his-tagged PDL1 coated, OD450
T2 construct: also called hPDL1-his; his-tagged human PD-L1; not shown: his tag
T2 sequence (Q9NZQ7 19-238 limits assumed): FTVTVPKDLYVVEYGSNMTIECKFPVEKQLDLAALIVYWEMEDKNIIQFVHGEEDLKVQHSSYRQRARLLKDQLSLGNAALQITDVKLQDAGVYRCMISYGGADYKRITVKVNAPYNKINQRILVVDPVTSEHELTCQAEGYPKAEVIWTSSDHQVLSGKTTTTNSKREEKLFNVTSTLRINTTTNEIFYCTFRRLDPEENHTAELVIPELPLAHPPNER
Excerpt: Briefly, for ELISA-based binding, his-tagged PDL1 was used as coating protein.

[2] = molecular target: T2, recombinant human his-tagged PD-L1 …; assay: SPR (Biacore T200), ligand captured on protein A chip, hPDL1-his as analyte
Protocol: A series of dilutions of human PD-L1 protein were injected over captured antibody at a flow rate of 10 μL/min. […] All the experiments were carried out on a Biacore T200. Data analysis was carried out using Biacore T200 evaluation software.

[3] = molecular target: T1, IL7R of human primary CD4+ T cells; assay: flow cytometry on human primary CD4+ T cells, 4 °C 30 min, PE anti-human Fc
Protocol: Briefly, for IL7R binding assay, human primary CD4⁺ T cells were incubated with various anti-PDL1-IL7 fusion molecules at 4° C. for 30 mins. […] For ligation-mediated receptor internalization assay, human primary CD4⁺ T cells were cocultured with fusion molecules at 37° C. for 15 mins to induce internalization. PE-cy7-conjugated-anti-CD127 (IL7Rα) antibody was used to detect the surface IL7Rα by FACS.

[4] = molecular target: T3, PD-L1 expressed on cells (Raji-PD-L1; tumor cell lines RKO, HCC1954, HCC827) (human, UniProt Q9NZQ7 19-290); assay: flow cytometry on HCC827 lung cancer cells, MFI
T3 construct: whole, on cells; also called cell-surface expressed PD-L1; cell surface PD-L1
T3 sequence (Q9NZQ7 19-290): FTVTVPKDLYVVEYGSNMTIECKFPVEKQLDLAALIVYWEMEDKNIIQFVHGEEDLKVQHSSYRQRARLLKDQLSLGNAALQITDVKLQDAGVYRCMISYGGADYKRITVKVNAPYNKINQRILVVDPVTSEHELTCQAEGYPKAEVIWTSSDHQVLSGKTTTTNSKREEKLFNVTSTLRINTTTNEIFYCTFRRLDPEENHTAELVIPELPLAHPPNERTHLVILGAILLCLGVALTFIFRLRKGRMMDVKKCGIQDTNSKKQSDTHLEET

[5] = molecular target: T3, PD-L1 expressed on cells (Raji-PD-L1; …); assay: flow cytometry on RKO colon carcinoma cells, MFI
[6] = molecular target: T3, PD-L1 expressed on cells (Raji-PD-L1; …); assay: flow cytometry on HCC1954 breast cancer cells, MFI
[7] = molecular target: T3, PD-L1 expressed on cells (Raji-PD-L1; …); assay: flow cytometry on Raji-PD-L1 cells, PE anti-human IgG Fc, MFI
Protocol: After washing by FACS staining buffer, the PE-conjugated anti-human IgG Fc specific antibody was added to each well and incubated on ice for 30 mins. The MFI of PE were evaluated by FACS Celesta.

| EC50 [1] [nM] | Kd [2] [nM] | koff [2] [s⁻¹] | kon [2] [M⁻¹ s⁻¹] | binding result [3] | EC50 [4] [nM] | EC50 [5] [nM] | EC50 [6] [nM] | EC50 [7] [nM] | Binder |
| --- | --- | --- | --- | --- | --- | --- | --- | --- | --- |
| 0.11 | 2.03 | 0.000164 | 80700 | no binding (tested: 100 nM) |  |  |  |  | α-PDL1(anti-PD-L1 v3) monoclonal antibody (antibody, V domains shown, also called parental anti-PD-L1 antibody (v3)) VH: EVQLVESGGGLVQPGGSLRLSCAASGFTFSSYDMSWVRQAPGKSLEWVATISDAGGYIYYSDSVKGRFTISRDNAKNSLYLQMNSLRDEDTAVYICAREFGKRYALDYWGQGTTVTVSS VL: DIQMTQSPSSLSASVGDRVTITCKASQDVTPAVAWYQQKPGKAPKLLIYSTSSRYTGVPSRFSGSGSGTDFTFTISSLQPEDIATYYCQQHYTTPLTFGQGTKLEIK |
| 0.46 | 0.948 | 0.000795 | 838000 |  | 0.17 | 0.19 | 0.28 | 0.11 | α-PDL1(anti-PD-L1 v4) monoclonal antibody (antibody, V domains shown, also called parental anti-PD-L1 (V4) antibody) VH: QVQLLESGGGLVQPGGSLRLSCAASGFTFSSYWMSWVRQAPGKGLEWVANIKQDGSEKYYVDSVKGRFTISRDNAKNSLYLQMNSLRAEDTAVYYCARVALWDDAFDIWGQGTMVTVSS VL: DIQMTQSPSTLSASVGDRVIITCRASRGISSWLAWYQQKPGKAPNLLISKASSLESGVPSRFSGSGSGTDFTLTISSLQPEDFATYYCQQSSSIPLTFGGGTKVEIK |
